Experimental data taken from US20200199241A1 (Chugai, published 2020).
Positions count from the first letter of the chain named. Names and notes keep the numbering of the source.

T1: human FcγRIIa(R) (human, UniProt P12318 36-217)
T1 construct: also called FcgRIIaR; hFcgRIIa(R)
T1 chain: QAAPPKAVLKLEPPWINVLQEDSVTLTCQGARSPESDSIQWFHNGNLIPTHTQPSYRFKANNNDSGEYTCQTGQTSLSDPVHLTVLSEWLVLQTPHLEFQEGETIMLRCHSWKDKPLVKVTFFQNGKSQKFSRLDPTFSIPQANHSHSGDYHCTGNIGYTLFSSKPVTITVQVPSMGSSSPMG

T2: human FcγRIIa(H) (human, UniProt P12318 36-217)
T2 construct: also called FcgRIIaH; hFcgRIIa(H)
T2 sequence: T1 chain with R133H

T3: human FcγRIIb (human, UniProt P31994 43-217, limits assumed)
T3 construct: also called FcgRIIb; hFcgRIIb
T3 sequence: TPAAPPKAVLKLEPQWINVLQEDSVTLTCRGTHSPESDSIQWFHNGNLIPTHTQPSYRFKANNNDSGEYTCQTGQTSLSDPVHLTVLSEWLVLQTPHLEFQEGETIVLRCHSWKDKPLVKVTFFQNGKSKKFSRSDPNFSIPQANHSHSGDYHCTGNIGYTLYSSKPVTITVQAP

B1: GpH7-B3 A327T/GpL16-k0 (antibody, human IgG1)
heavy: not shown
light: DIVMTQSPLSLPVTPGEPASISCQASESLVHSNRNTYLHWYLQKPGQSPQLLIYKVSNRFSGVPDRFSGSGSGTDFTLKISRVEAEDVGVYYCSQNTHVPPTFGQGTKVEIE
notes: B3 variant; copies: 2 + 2
B2: GpH7-B3 A327V/GpL16-k0 (antibody, human IgG1)
heavy: not shown
light: B1 light
notes: B3 variant; copies: 2 + 2
B3: GpH7-B3 A327W/GpL16-k0 (antibody, human IgG1)
heavy: not shown
light: B1 light
notes: B3 variant; copies: 2 + 2
B4: GpH7-B3 A327Y/GpL16-k0 (antibody, human IgG1)
heavy: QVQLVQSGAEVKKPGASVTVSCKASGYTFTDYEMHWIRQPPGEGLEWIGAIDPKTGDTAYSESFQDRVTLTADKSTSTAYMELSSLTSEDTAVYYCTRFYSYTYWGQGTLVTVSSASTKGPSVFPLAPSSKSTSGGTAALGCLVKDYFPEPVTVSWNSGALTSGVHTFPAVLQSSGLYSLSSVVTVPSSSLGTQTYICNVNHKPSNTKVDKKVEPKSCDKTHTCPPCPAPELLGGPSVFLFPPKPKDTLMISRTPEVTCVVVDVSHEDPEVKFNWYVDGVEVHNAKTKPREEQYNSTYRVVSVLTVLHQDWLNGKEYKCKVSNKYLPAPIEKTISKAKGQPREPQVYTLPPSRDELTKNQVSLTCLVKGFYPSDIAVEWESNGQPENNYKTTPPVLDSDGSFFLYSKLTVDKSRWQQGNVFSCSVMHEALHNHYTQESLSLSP
light: B1 light
notes: B3 variant; copies: 2 + 2
B5: GpH7-B3 A330P/GpL16-k0 (antibody, human IgG1)
heavy: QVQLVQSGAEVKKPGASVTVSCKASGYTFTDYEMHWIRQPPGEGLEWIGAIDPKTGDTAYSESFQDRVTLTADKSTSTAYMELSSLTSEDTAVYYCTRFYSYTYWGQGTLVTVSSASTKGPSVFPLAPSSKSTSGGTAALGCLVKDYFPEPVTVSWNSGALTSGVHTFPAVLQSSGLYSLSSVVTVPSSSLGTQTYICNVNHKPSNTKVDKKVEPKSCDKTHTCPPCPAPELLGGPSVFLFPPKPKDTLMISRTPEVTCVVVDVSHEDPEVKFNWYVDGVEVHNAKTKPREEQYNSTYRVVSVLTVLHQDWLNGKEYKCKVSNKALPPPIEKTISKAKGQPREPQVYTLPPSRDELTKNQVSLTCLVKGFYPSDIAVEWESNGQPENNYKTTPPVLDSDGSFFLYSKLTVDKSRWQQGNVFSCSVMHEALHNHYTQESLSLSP
light: B1 light
notes: B3 variant; copies: 2 + 2
B6: GpH7-B3 A330S/GpL16-k0 (antibody, human IgG1)
heavy: not shown
light: B1 light
notes: B3 variant; copies: 2 + 2
B7: GpH7-B3 D270A/GpL16-k0 (antibody, human IgG1)
heavy: not shown
light: B1 light
notes: B3 variant; copies: 2 + 2
B8: GpH7-B3 D270F/GpL16-k0 (antibody, human IgG1)
heavy: not shown
light: B1 light
notes: B3 variant; copies: 2 + 2
B9: GpH7-B3 D270H/GpL16-k0 (antibody, human IgG1)
heavy: not shown
light: B1 light
notes: B3 variant; copies: 2 + 2
B10: GpH7-B3 D270I/GpL16-k0 (antibody, human IgG1)
heavy: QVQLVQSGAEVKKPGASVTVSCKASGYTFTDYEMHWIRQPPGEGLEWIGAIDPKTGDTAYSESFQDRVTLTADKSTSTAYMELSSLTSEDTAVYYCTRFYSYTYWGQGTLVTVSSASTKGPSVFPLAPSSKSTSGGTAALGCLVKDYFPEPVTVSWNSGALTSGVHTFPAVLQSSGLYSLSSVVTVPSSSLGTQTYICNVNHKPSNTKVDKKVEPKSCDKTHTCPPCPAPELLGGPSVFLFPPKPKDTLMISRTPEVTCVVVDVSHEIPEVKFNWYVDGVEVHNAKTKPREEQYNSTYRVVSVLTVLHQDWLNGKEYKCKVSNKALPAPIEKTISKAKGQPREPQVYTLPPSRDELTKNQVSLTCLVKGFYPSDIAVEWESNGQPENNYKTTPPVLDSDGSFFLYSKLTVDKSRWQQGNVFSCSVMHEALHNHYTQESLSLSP
light: B1 light
notes: B3 variant; copies: 2 + 2
B11: GpH7-B3 D270L/GpL16-k0 (antibody, human IgG1)
heavy: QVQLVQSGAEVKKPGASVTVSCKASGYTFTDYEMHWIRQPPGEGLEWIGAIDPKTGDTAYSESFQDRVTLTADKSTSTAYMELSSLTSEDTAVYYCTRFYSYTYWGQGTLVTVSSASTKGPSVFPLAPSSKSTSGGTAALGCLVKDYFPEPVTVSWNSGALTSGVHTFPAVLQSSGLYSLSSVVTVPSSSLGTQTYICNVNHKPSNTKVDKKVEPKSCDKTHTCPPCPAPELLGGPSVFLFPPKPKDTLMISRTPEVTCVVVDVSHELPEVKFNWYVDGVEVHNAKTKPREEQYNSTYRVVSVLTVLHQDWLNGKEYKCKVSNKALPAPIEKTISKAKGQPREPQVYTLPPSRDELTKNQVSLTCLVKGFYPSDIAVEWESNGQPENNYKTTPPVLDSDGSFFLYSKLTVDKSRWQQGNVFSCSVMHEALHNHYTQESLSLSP
light: B1 light
notes: B3 variant; copies: 2 + 2
B12: GpH7-B3 D270M/GpL16-k0 (antibody, human IgG1)
heavy: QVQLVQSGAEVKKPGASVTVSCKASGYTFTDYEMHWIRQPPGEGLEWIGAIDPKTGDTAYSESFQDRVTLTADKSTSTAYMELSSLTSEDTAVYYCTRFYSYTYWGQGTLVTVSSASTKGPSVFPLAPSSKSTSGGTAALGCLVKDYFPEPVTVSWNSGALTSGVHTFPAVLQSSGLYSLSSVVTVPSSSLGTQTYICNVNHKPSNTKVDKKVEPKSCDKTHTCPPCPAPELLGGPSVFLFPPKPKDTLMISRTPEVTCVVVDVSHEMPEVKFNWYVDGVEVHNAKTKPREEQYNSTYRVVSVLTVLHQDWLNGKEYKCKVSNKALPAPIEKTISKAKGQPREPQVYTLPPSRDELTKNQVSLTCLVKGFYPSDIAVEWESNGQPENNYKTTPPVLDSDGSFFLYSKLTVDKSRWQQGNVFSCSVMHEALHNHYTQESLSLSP
light: B1 light
notes: B3 variant; copies: 2 + 2
B13: GpH7-B3 D270N/GpL16-k0 (antibody, human IgG1)
heavy: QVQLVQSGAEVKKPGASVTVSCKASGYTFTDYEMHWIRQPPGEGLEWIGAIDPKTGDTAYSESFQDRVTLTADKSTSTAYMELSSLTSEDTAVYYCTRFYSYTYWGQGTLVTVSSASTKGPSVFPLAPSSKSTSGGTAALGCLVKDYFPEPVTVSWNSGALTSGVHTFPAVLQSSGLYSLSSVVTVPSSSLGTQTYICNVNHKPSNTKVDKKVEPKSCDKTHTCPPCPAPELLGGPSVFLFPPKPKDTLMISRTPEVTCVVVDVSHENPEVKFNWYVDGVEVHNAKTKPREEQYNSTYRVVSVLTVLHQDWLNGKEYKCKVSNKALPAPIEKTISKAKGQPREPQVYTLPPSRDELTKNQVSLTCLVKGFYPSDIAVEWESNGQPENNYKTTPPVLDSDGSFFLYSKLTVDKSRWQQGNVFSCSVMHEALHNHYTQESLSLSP
light: B1 light
notes: B3 variant; copies: 2 + 2
B14: GpH7-B3 D270Q/GpL16-k0 (antibody, human IgG1)
heavy: not shown
light: B1 light
notes: B3 variant; copies: 2 + 2
B15: GpH7-B3 D270S/GpL16-k0 (antibody, human IgG1)
heavy: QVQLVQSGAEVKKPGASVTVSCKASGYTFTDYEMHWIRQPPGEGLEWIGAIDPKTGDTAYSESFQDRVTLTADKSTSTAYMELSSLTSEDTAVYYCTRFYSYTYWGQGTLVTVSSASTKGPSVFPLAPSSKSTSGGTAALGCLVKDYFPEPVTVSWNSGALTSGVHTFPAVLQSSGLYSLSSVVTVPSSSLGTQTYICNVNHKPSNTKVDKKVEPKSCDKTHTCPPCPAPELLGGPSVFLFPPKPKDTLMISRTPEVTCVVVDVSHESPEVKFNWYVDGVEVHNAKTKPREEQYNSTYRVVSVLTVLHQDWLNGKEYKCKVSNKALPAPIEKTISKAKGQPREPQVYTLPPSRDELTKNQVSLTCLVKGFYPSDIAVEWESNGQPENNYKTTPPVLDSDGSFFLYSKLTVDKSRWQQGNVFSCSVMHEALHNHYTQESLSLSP
light: B1 light
notes: B3 variant; copies: 2 + 2
B16: GpH7-B3 D270T/GpL16-k0 (antibody, human IgG1)
heavy: not shown
light: B1 light
notes: B3 variant; copies: 2 + 2
B17: GpH7-B3 D270V/GpL16-k0 (antibody, human IgG1)
heavy: not shown
light: B1 light
notes: B3 variant; copies: 2 + 2
B18: GpH7-B3 D270Y/GpL16-k0 (antibody, human IgG1)
heavy: not shown
light: B1 light
notes: B3 variant; copies: 2 + 2
B19: GpH7-B3 I332K/GpL16-k0 (antibody, human IgG1)
heavy: not shown
light: B1 light
notes: B3 variant; copies: 2 + 2
B20: GpH7-B3 I332P/GpL16-k0 (antibody, human IgG1)
heavy: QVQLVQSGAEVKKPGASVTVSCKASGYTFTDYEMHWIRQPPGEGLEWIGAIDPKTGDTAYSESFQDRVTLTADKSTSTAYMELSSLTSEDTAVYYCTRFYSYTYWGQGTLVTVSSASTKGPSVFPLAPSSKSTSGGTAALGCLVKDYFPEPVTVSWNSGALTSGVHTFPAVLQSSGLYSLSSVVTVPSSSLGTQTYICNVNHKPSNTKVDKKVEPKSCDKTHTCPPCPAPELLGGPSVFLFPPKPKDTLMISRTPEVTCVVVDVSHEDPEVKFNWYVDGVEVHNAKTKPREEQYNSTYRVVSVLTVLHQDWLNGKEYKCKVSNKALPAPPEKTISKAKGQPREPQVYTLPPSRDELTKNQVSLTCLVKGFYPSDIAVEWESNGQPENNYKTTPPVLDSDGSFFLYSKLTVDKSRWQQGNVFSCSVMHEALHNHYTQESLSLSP
light: B1 light
notes: B3 variant; copies: 2 + 2
B21: GpH7-B3 I332R/GpL16-k0 (antibody, human IgG1)
heavy: not shown
light: B1 light
notes: B3 variant; copies: 2 + 2
B22: GpH7-B3 L328G/GpL16-k0 (antibody, human IgG1)
heavy: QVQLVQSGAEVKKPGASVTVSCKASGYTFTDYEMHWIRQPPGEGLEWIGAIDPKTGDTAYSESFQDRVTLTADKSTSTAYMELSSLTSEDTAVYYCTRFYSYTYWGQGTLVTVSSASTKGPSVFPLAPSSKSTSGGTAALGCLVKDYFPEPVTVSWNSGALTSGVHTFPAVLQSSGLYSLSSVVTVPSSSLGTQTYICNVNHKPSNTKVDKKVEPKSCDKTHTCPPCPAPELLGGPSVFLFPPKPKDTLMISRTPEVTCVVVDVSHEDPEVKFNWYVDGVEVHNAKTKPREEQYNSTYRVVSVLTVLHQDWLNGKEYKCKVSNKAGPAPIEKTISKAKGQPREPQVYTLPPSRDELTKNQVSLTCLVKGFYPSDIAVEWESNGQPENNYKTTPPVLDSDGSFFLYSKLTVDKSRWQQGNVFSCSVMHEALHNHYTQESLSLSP
light: B1 light
notes: B3 variant; copies: 2 + 2
B23: GpH7-B3 L328H/GpL16-k0 (antibody, human IgG1)
heavy: not shown
light: B1 light
notes: B3 variant; copies: 2 + 2
B24: GpH7-B3 L328K/GpL16-k0 (antibody, human IgG1)
heavy: not shown
light: B1 light
notes: B3 variant; copies: 2 + 2
B25: GpH7-B3 L328N/GpL16-k0 (antibody, human IgG1)
heavy: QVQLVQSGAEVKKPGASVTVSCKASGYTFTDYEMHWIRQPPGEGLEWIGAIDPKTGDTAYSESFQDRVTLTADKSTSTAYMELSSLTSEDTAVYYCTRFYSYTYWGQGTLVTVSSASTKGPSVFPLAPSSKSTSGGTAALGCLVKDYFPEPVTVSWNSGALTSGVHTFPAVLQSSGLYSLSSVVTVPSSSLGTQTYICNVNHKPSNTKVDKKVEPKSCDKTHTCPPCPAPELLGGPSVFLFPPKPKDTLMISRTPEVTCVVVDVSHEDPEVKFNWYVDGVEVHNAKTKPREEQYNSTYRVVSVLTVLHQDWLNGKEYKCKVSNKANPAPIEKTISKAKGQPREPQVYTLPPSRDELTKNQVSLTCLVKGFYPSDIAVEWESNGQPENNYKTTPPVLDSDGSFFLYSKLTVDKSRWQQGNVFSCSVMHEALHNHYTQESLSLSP
light: B1 light
notes: B3 variant; copies: 2 + 2
B26: GpH7-B3 L328P/GpL16-k0 (antibody, human IgG1)
heavy: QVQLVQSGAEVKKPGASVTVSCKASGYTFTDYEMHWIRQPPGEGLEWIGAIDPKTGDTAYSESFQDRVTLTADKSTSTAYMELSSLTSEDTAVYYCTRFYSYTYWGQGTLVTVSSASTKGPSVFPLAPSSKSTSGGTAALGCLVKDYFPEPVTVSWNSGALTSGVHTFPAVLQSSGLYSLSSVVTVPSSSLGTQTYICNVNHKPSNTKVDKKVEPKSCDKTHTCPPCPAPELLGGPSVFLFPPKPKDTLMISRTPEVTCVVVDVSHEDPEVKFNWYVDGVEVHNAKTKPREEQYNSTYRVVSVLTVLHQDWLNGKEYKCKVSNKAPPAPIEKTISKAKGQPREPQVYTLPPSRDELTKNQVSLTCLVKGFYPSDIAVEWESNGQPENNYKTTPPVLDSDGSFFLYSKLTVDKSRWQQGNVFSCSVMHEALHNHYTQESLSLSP
light: B1 light
notes: B3 variant; copies: 2 + 2
B27: GpH7-B3 L328R/GpL16-k0 (antibody, human IgG1)
heavy: not shown
light: B1 light
notes: B3 variant; copies: 2 + 2
B28: GpH7-B3 N325A/GpL16-k0 (antibody, human IgG1)
heavy: not shown
light: B1 light
notes: B3 variant; copies: 2 + 2
B29: GpH7-B3 N325F/GpL16-k0 (antibody, human IgG1)
heavy: not shown
light: B1 light
notes: B3 variant; copies: 2 + 2
B30: GpH7-B3 N325G/GpL16-k0 (antibody, human IgG1)
heavy: not shown
light: B1 light
notes: B3 variant; copies: 2 + 2
B31: GpH7-B3 N325H/GpL16-k0 (antibody, human IgG1)
heavy: not shown
light: B1 light
notes: B3 variant; copies: 2 + 2
B32: GpH7-B3 N325K/GpL16-k0 (antibody, human IgG1)
heavy: not shown
light: B1 light
notes: B3 variant; copies: 2 + 2
B33: GpH7-B3 N325P/GpL16-k0 (antibody, human IgG1)
heavy: not shown
light: B1 light
notes: B3 variant; copies: 2 + 2

Target: T1, human FcγRIIa(R)
Assay: SPR, captured antibody;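 note: antibody captured on a sensor chip, Fcγ receptor flowed over at 25 °C, receptor binding normalized to the captured antibody amount and expressed relative to the reference antibody ×100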
Procedure: (§1) Interaction between each modified antibody and Fcγ receptor prepared in the manner described above was analyzed using the BIACORE™ T100 surface plasmon resonance system (GE Healthcare), BIACORE™ T200 surface plasmon resonance system (GE Healthcare), BIACORE™ A100 surface plasmon resonance system or BIACORE™ 4000 surface plasmon resonance system. HBS-EP+ (GE Healthcare) was used for the running buffer, and measurements were carried out at 25° C. The chips used were chips in which antigen peptides, Protein A (Thermo Scientific), Protein A/G (Thermo Scientific) or Protein L (ACTIGEN® protein (Alltech or BioVision) were immobilized on the Series S Sensor Chip CMS (GE Healthcare) or Series S Sensor Chip CM4 (GE Healthcare) by amine coupling, or chips in which preliminarily biotinylated antigen peptides were allowed to interact and then immobilized on the Series S Sensor Chip SA (certified) (GE Healthcare). The target antibodies were captured on these sensor chips, Fcγ receptor diluted with the running buffer was allowed to interact, followed by measurement of the amount of bound antibody. The amounts bound were compared between antibodies. However, since the amount of Fcγ receptor bound depends on the amount of captured antibody, the values used for comparison were first corrected by dividing the amount of Fcγ receptor bound by the captured amount of each antibody. Through reaction with 10 mM glycine-HCl at pH 1.5, the sensor chips were regenerated by washing off antibody captured on the sensor chips and used repeatedly.
(§2) Binding strength was evaluated according to the following method based on the results of analyzing the interaction with each FcγR. […] That value was then further multiplied by 100, and the resulting value was used as an indicator of relative binding activity to each FcγR.

Binder	relative binding activity
B1	27 % of GpH7-B3/GpL16-k0
B2	46 % of GpH7-B3/GpL16-k0
B3	34 % of GpH7-B3/GpL16-k0
B4	17 % of GpH7-B3/GpL16-k0
B5	42 % of GpH7-B3/GpL16-k0
B6	0 % of GpH7-B3/GpL16-k0
B7	3 % of GpH7-B3/GpL16-k0
B8	5 % of GpH7-B3/GpL16-k0
B9	0 % of GpH7-B3/GpL16-k0
B10	3 % of GpH7-B3/GpL16-k0
B11	6 % of GpH7-B3/GpL16-k0
B12	7 % of GpH7-B3/GpL16-k0
B13	-1 % of GpH7-B3/GpL16-k0
B14	2 % of GpH7-B3/GpL16-k0
B15	0 % of GpH7-B3/GpL16-k0
B16	1 % of GpH7-B3/GpL16-k0
B17	1 % of GpH7-B3/GpL16-k0

Binder	relative binding activity
B18	-2 % of GpH7-B3/GpL16-k0
B19	12 % of GpH7-B3/GpL16-k0
B20	34 % of GpH7-B3/GpL16-k0
B21	28 % of GpH7-B3/GpL16-k0
B22	66 % of GpH7-B3/GpL16-k0
B23	76 % of GpH7-B3/GpL16-k0
B24	-17 % of GpH7-B3/GpL16-k0
B25	25 % of GpH7-B3/GpL16-k0
B26	15 % of GpH7-B3/GpL16-k0
B27	-13 % of GpH7-B3/GpL16-k0
B28	38 % of GpH7-B3/GpL16-k0
B29	65 % of GpH7-B3/GpL16-k0
B30	26 % of GpH7-B3/GpL16-k0
B31	34 % of GpH7-B3/GpL16-k0
B32	0 % of GpH7-B3/GpL16-k0
B33	2 % of GpH7-B3/GpL16-k0

Target: T2, human FcγRIIa(H)
Assay: SPR, captured antibody;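 note: antibody captured on a sensor chip, Fcγ receptor flowed over at 25 °C, receptor binding normalized to the captured antibody amount and expressed relative to the reference antibody ×100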
Procedure: as §1, §2

Binder	relative binding activity
B1	12 % of GpH7-B3/GpL16-k0
B2	17 % of GpH7-B3/GpL16-k0
B3	21 % of GpH7-B3/GpL16-k0
B4	26 % of GpH7-B3/GpL16-k0
B5	25 % of GpH7-B3/GpL16-k0
B6	0 % of GpH7-B3/GpL16-k0
B7	66 % of GpH7-B3/GpL16-k0
B8	62 % of GpH7-B3/GpL16-k0
B9	53 % of GpH7-B3/GpL16-k0
B10	43 % of GpH7-B3/GpL16-k0
B11	61 % of GpH7-B3/GpL16-k0
B12	57 % of GpH7-B3/GpL16-k0
B13	34 % of GpH7-B3/GpL16-k0
B14	78 % of GpH7-B3/GpL16-k0
B15	49 % of GpH7-B3/GpL16-k0
B16	38 % of GpH7-B3/GpL16-k0
B17	37 % of GpH7-B3/GpL16-k0

Binder	relative binding activity
B18	53 % of GpH7-B3/GpL16-k0
B19	59 % of GpH7-B3/GpL16-k0
B20	26 % of GpH7-B3/GpL16-k0
B21	70 % of GpH7-B3/GpL16-k0
B22	52 % of GpH7-B3/GpL16-k0
B23	47 % of GpH7-B3/GpL16-k0
B24	-2 % of GpH7-B3/GpL16-k0
B25	34 % of GpH7-B3/GpL16-k0
B26	8 % of GpH7-B3/GpL16-k0
B27	-1 % of GpH7-B3/GpL16-k0
B28	14 % of GpH7-B3/GpL16-k0
B29	6 % of GpH7-B3/GpL16-k0
B30	7 % of GpH7-B3/GpL16-k0
B31	13 % of GpH7-B3/GpL16-k0
B32	0 % of GpH7-B3/GpL16-k0
B33	1 % of GpH7-B3/GpL16-k0

Target: T3, human FcγRIIb
Assay: SPR, captured antibody;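 note: antibody captured on a sensor chip, Fcγ receptor flowed over at 25 °C, receptor binding normalized to the captured antibody amount and expressed relative to the reference antibody ×100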
Procedure: as §1, §2

Binder	relative binding activity
B1	37 % of GpH7-B3/GpL16-k0
B2	43 % of GpH7-B3/GpL16-k0
B3	34 % of GpH7-B3/GpL16-k0
B4	18 % of GpH7-B3/GpL16-k0
B5	39 % of GpH7-B3/GpL16-k0
B6	-3 % of GpH7-B3/GpL16-k0
B7	5 % of GpH7-B3/GpL16-k0
B8	5 % of GpH7-B3/GpL16-k0
B9	-2 % of GpH7-B3/GpL16-k0
B10	1 % of GpH7-B3/GpL16-k0
B11	3 % of GpH7-B3/GpL16-k0
B12	6 % of GpH7-B3/GpL16-k0
B13	-2 % of GpH7-B3/GpL16-k0
B14	0 % of GpH7-B3/GpL16-k0
B15	-1 % of GpH7-B3/GpL16-k0
B16	-2 % of GpH7-B3/GpL16-k0
B17	3 % of GpH7-B3/GpL16-k0

Binder	relative binding activity
B18	-2 % of GpH7-B3/GpL16-k0
B19	27 % of GpH7-B3/GpL16-k0
B20	41 % of GpH7-B3/GpL16-k0
B21	23 % of GpH7-B3/GpL16-k0
B22	62 % of GpH7-B3/GpL16-k0
B23	82 % of GpH7-B3/GpL16-k0
B24	-4 % of GpH7-B3/GpL16-k0
B25	78 % of GpH7-B3/GpL16-k0
B26	15 % of GpH7-B3/GpL16-k0
B27	-3 % of GpH7-B3/GpL16-k0
B28	27 % of GpH7-B3/GpL16-k0
B29	72 % of GpH7-B3/GpL16-k0
B30	22 % of GpH7-B3/GpL16-k0
B31	27 % of GpH7-B3/GpL16-k0
B32	-1 % of GpH7-B3/GpL16-k0
B33	3 % of GpH7-B3/GpL16-k0

Target: T4, human FcγRIa (human, UniProt P12314 16-292, limits assumed)
T4 construct: also called FcgRIa; hFcgRIa
Assay: SPR, captured antibody;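 note: antibody captured on a sensor chip, Fcγ receptor flowed over at 25 °C, receptor binding normalized to the captured antibody amount and expressed relative to the reference antibody ×100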
Procedure: as §1, §2

Binder	relative binding activity
B1	64 % of GpH7-B3/GpL16-k0
B2	97 % of GpH7-B3/GpL16-k0
B3	100 % of GpH7-B3/GpL16-k0
B4	97 % of GpH7-B3/GpL16-k0
B5	87 % of GpH7-B3/GpL16-k0
B6	58 % of GpH7-B3/GpL16-k0
B7	87 % of GpH7-B3/GpL16-k0
B8	88 % of GpH7-B3/GpL16-k0
B9	70 % of GpH7-B3/GpL16-k0
B10	88 % of GpH7-B3/GpL16-k0
B11	90 % of GpH7-B3/GpL16-k0
B12	90 % of GpH7-B3/GpL16-k0
B13	68 % of GpH7-B3/GpL16-k0
B14	82 % of GpH7-B3/GpL16-k0
B15	73 % of GpH7-B3/GpL16-k0
B16	81 % of GpH7-B3/GpL16-k0
B17	84 % of GpH7-B3/GpL16-k0

Binder	relative binding activity
B18	78 % of GpH7-B3/GpL16-k0
B19	77 % of GpH7-B3/GpL16-k0
B20	100 % of GpH7-B3/GpL16-k0
B21	95 % of GpH7-B3/GpL16-k0
B22	92 % of GpH7-B3/GpL16-k0
B23	95 % of GpH7-B3/GpL16-k0
B24	30 % of GpH7-B3/GpL16-k0
B25	98 % of GpH7-B3/GpL16-k0
B26	78 % of GpH7-B3/GpL16-k0
B27	26 % of GpH7-B3/GpL16-k0
B28	94 % of GpH7-B3/GpL16-k0
B29	92 % of GpH7-B3/GpL16-k0
B30	95 % of GpH7-B3/GpL16-k0
B31	93 % of GpH7-B3/GpL16-k0
B32	55 % of GpH7-B3/GpL16-k0
B33	50 % of GpH7-B3/GpL16-k0
